Patent publication US20120045391A1 (NATIONAL RESEARCH COUNCIL CANADA, published 2012)

T1: IGFBP7 (recombinant; preparation not specified) (UniProt Q16270 27-282)
T1 construct: also called immobilized IGFBP7; recombinant IGFBP7
T1 sequence (looked up): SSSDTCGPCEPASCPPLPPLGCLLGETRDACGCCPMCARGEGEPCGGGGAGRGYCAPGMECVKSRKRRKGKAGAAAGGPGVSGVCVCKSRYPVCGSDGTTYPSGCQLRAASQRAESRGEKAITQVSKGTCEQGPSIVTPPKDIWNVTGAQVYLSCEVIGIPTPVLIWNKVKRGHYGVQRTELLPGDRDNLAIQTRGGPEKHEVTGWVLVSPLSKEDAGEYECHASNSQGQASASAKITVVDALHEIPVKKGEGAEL

T2: recombinant protein IGFBP7 from R&D (UniProt Q16270 27-282)
T2 construct: Bought protein immobilized on the Biacore chip; also called recombinant IGFBP7
T2 sequence (looked up): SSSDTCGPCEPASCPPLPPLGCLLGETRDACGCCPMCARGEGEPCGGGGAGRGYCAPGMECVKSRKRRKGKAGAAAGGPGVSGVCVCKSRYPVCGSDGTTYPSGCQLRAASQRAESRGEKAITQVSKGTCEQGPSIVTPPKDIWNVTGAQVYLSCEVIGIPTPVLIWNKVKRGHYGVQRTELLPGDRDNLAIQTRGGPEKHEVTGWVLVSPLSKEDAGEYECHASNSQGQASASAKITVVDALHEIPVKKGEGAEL

T3: recombinant custom-synthesized IGFBP7 (UniProt Q16270 27-282)
T3 construct: also called custom-synthesized recombinant IGFBP7
T3 sequence (looked up): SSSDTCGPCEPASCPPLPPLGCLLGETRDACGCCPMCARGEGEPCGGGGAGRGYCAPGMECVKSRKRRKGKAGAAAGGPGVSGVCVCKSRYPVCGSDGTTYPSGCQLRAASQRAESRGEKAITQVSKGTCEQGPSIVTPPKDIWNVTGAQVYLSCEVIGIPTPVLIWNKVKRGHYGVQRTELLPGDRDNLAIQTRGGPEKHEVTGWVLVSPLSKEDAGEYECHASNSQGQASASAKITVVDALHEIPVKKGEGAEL


What was measured:
[1] = molecular target: T1, IGFBP7 (recombinant; preparation not …); test: SPR, fit to a steady state model
[2] = molecular target: T2, recombinant protein IGFBP7 from R&D; test: SPR, steady state analysis, IGFBP7 as ligand
[3] = molecular target: T3, recombinant custom-synthesized IGFBP7; test: SPR, steady state analysis, IGFBP7 as ligand
[4] = molecular target: T2, recombinant protein IGFBP7 from R&D; test: SPR, steady state analysis as Scatchard plot, IGFBP7 as ligand

Row | Binder | Kd [1] | Kd [2] | Kd [3] | Kd [4]
1 | sdAb clone 4.6-IGFBP7 (VHH, also called IGFBP7-4.6; not shown: c-Myc detection tag and 5xHis purification tag added at the C-terminus by vector pSJF2) VHH: QVKLEESGGGSVQPGGSLRLSCAASGRTFSRLAMGWFRQAPGKERELVAGISRSGDGTHYAYSVKGRFTISRDNAANTVELQMNSLKPEDTAVYFCAAARTAFYYYGNDYNYWGQGTQVTVSS | ~1000 nM |  |  | 
2 | sdAb clone 4.43-IGFBP7 (VHH, not shown: c-Myc detection tag and 5xHis purification tag added at the C-terminus by vector pSJF2) VHH: QVKLEESGGGLVQAGGSLRLSCAASGRTSRRYAMGWFRQAPGKEREFVAGISRSGDGTHYAYSVKGRFTISRDNAANTVELQMNSLKPEDTAVYFCAAARTAFYYYGNDYNYWGQGTQVTVSS |  | 40 nM | 30 nM | 50 nM
